Measured values from the Human Domainome abundance scans (Beltran et al. 2025).
± gives the uncertainty stated by the source.

B1: Double-stranded RNA-specific adenosine deaminase, residues 296 to 358; numbered along this chain, P55265 (parent)
chain: MAEIKEKICDYLFNVSDSSALNLAKNIGLTKARDINAVLIDMERQGDVYRQGTTPPIWHLTDK
B2: COUP transcription factor 1, residues 83 to 159; numbered along this chain, P10589 (parent)
chain: HIECVVCGDKSSGKHYGQFTCEGCKSFFKRSVRRNLTYTCRANRNCPIDQHHRNQCQYCRLKKCLKVGMRREAVQRG

Variants of: B1
Test: abundance fitness (aPCA) (normalised: wild type 0, dead -1); higher = more abundant; growth selection in yeast, the domain comes from the species named
Conditions: Homo sapiens

Row | Variant | abundance fitness
1 | D62T | -0.15 ± 0.074
2 | D62W | -0.445 ± 0.087
3 | D62Y | -0.437 ± 0.077
4 | K63C | -0.258 ± 0.13
5 | K63M | -0.619 ± 0.28
6 | K63G | -0.442 ± 0.15
7 | K63Q | -0.79 ± 0.41
8 | K63T | -0.297 ± 0.11
9 | K63R | 0.032 ± 0.1
10 | K63F | -0.217 ± 0.46
11 | K63E | -0.234 ± 0.11
12 | K63P | -0.341 ± 0.12
13 | K63H | -0.374 ± 0.31
14 | K63S | -0.367 ± 0.11
15 | K63Y | -0.634 ± 0.15
16 | K63N | -0.302 ± 0.14
17 | K63D | -0.162 ± 0.23

Variants of: B2
Test: as above
Conditions: Homo sapiens

Row | Variant | abundance fitness
18 | C4I | -0.998 ± 0.14
19 | C4Q | -1.25 ± 0.32
20 | C4S | -0.515 ± 0.062
21 | C4Y | -0.9 ± 0.12
22 | C4T | -0.635 ± 0.11
23 | R76N | 0.123 ± 0.063
24 | R76Y | 0.046 ± 0.075
25 | R76G | 0.161 ± 0.034
26 | R76E | 0.11 ± 0.047
27 | G8S | 0.077 ± 0.073
28 | G8C | -0.182 ± 0.16
29 | G8T | -0.237 ± 0.19
30 | Y38W | -0.658 ± 0.15
31 | Y38P | 0.094 ± 0.085
32 | Y38F | -0.089 ± 0.15
33 | Y38E | -0.226 ± 0.11
34 | Y38R | -0.662 ± 0.11
35 | Y38N | -0.772 ± 0.27
36 | Y38D | -0.509 ± 0.32
37 | Y38Q | -0.464 ± 0.21
38 | Q57G | 0.07 ± 0.047
39 | Q57K | -0.341 ± 0.11
40 | Q57D | 0.046 ± 0.095
41 | Q57Y | 0.296 ± 0.21
42 | R53H | -0.231 ± 0.17

Row | Variant | abundance fitness
43 | R53K | -0.218 ± 0.14
44 | R53W | -0.288 ± 0.11
45 | T39I | -0.019 ± 0.27
46 | E3P | -0.279 ± 0.086
47 | E3G | -0.402 ± 0.04
48 | E3F | -0.173 ± 0.35
49 | E3S | -0.052 ± 0.064
50 | E3C | -0.072 ± 0.083
51 | N35V | -0.104 ± 0.072
52 | N35W | -0.38 ± 0.16
53 | L61A | -0.72 ± 0.07
54 | L61G | -0.73 ± 0.06
55 | L61E | -0.38 ± 0.053
56 | F27K | -0.968 ± 0.33
57 | F27N | -0.222 ± 0.29
58 | F27G | -0.83 ± 0.093
59 | F27S | -0.815 ± 0.17
60 | R71W | -0.085 ± 0.045
61 | R71P | 0.023 ± 0.052
62 | R71S | 0.018 ± 0.037
63 | S11Y | 0.177 ± 0.15
64 | S11F | 0.085 ± 0.13
65 | S11W | -0.236 ± 0.064
66 | Q55I | 0.006 ± 0.06
67 | Q55K | -0.021 ± 0.073

Row | Variant | abundance fitness
68 | Q55D | 0.123 ± 0.051
69 | Q55V | -0.003 ± 0.04
70 | Q55C | 0.008 ± 0.056
71 | K62S | 0.011 ± 0.041
72 | K62I | 0.189 ± 0.068
73 | K62H | -0.198 ± 0.083
74 | K62V | 0.086 ± 0.037
75 | K62N | 0.146 ± 0.063
76 | K62Y | -0.512 ± 0.16
77 | R34L | -0.161 ± 0.09
78 | R34A | 0.268 ± 0.066
79 | R34I | 0.091 ± 0.16
80 | R34V | -0.137 ± 0.085
81 | K10T | 0.056 ± 0.06
82 | K10V | -0.235 ± 0.048
83 | K10C | -0.105 ± 0.075
84 | K10G | -0.114 ± 0.037
85 | T20Y | -0.165 ± 0.11
86 | T20C | 0.163 ± 0.064
87 | T20W | -0.058 ± 0.051
88 | T20G | -0.242 ± 0.039
89 | T20D | -1.13 ± 0.34
90 | T20S | 0.067 ± 0.046
91 | T20I | 0.232 ± 0.086
92 | Y58E | 0.027 ± 0.04

Row | Variant | abundance fitness
93 | R30Q | -0.411 ± 0.26
94 | R30C | 0.067 ± 0.31
95 | R30L | -0.195 ± 0.12
96 | R33D | 0.013 ± 0.072
97 | R33A | 0.142 ± 0.042
98 | R33F | -0.51 ± 0.26
99 | R33E | 0.099 ± 0.052
100 | K25C | 0.087 ± 0.074
101 | K25V | 0.025 ± 0.045
102 | S12R | -0.205 ± 0.051
103 | S12H | -0.096 ± 0.088
104 | S12M | -0.113 ± 0.063
105 | S12N | 0.003 ± 0.065
106 | Q75E | 0.104 ± 0.04
107 | Q75F | -0.026 ± 0.07
108 | Q75G | 0.084 ± 0.032
109 | Q75D | 0.211 ± 0.054
110 | Q75K | -0.071 ± 0.052
111 | Q75R | -0.159 ± 0.034
112 | Q75S | -0.023 ± 0.04
113 | R41I | 0.135 ± 0.13
114 | R41E | 0.107 ± 0.064
115 | R41K | 0.301 ± 0.075
116 | R41F | -0.239 ± 0.2
117 | R41C | 0.038 ± 0.099

Row | Variant | abundance fitness
118 | R41G | 0.188 ± 0.042
119 | H51G | 0.034 ± 0.031
120 | H51M | 0.025 ± 0.066
121 | H51V | -0.051 ± 0.041
122 | H51Y | -0.09 ± 0.096
123 | S31Y | -0.169 ± 0.2
124 | S31W | -0.185 ± 0.074
125 | S31E | -0.336 ± 0.091
126 | C21K | -0.818 ± 0.23
127 | C21Y | -0.974 ± 0.4
128 | C21T | -0.742 ± 0.16
129 | C21P | -0.923 ± 0.18
130 | C40P | -0.941 ± 0.17
131 | C40D | -0.51 ± 0.15
132 | C40G | -0.731 ± 0.064
133 | C40Y | -0.704 ± 0.21
134 | C40H | -1.21 ± 0.33
135 | C40A | -0.885 ± 0.094
136 | C40L | -0.786 ± 0.086
137 | E72Y | -0.177 ± 0.078
138 | E72D | -0.002 ± 0.06
139 | E72L | -0.317 ± 0.044
140 | E72T | -0.283 ± 0.056
141 | E72C | -0.337 ± 0.064
142 | C46Q | -0.18 ± 0.16

Row | Variant | abundance fitness
143 | C46S | -0.604 ± 0.12
144 | C46P | -0.587 ± 0.18
145 | L65M | -0.069 ± 0.047
146 | L65Y | -0.069 ± 0.069
147 | L65A | -0.228 ± 0.044
148 | L65N | -0.322 ± 0.089
149 | L65G | -0.392 ± 0.039
150 | L65R | -0.497 ± 0.044
151 | L65Q | 0.029 ± 0.048
152 | K63M | -0.048 ± 0.047
153 | K63V | -0.249 ± 0.045
154 | K63W | -0.391 ± 0.053
155 | C56H | -0.6 ± 0.2
156 | C56E | -0.87 ± 0.15
157 | C56Y | -0.612 ± 0.35
158 | C56A | -0.552 ± 0.098
159 | C56S | -0.723 ± 0.15
160 | C56D | -0.815 ± 0.28
161 | V6L | -0.889 ± 0.15
162 | V6W | -0.545 ± 0.11
163 | V6A | -0.458 ± 0.079
164 | V6I | -0.074 ± 0.11
165 | V32Y | -0.062 ± 0.17
166 | V32P | -0.393 ± 0.13
167 | V32S | -0.336 ± 0.067
